Consider one molecule from US20180231562A1 (UCB, published 2018).

The target in assay [1] is T1, human TNFα in complex with compound (39) (human, UniProt P01375 77-233).
T1 construct: also called Human TNFα + compound (39); compound-distorted human TNFα
Briefly: SPR (BIAcore T200), against apo human TNFα.

The target of assay [2] is T2, human TNFα in complex with compound (15) (human, UniProt P01375 77-233).
T2 construct: also called Human TNFα + compound 15; Human TNFα + compound (15)
Briefly: SPR (BIAcore T200), against apo human TNFα. Background: SPR reads the build-up and loss of mass on a sensor chip optically.

T2 sequence (P01375 77-233 limits assumed, one chain of several): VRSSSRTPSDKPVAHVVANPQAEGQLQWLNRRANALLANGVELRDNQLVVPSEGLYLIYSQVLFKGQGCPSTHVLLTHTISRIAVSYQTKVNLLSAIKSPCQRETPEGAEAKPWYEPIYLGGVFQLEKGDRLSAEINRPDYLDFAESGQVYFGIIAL
T1 sequence (P01375 77-233 limits assumed, one chain of several): as above

B1: CA185_01979 (antibody, mouse IgG1, kappa, V domains shown)
VH: EVHLVESGPGLVKPSQSLSLTCSVTGYSITNSYWDWIRKFPGNKMEWMGYINYSGSTGYNPSLKSRISISRDTSNNQFFLQLNSITTEDTATYYCARGTYGYNAYHFDYWGRGVMVTVSS
VL: DIQMTQSPASLSASLEEIVTITCQASQDIGNWLSWYQQKPGKSPHLLIYGTTSLADGVPSRFSGSRSGTQYSLKISGLQVADIGIYVCLQAYSTPFTFGSGTKLEIKR
notes: also called CA185_01979.0; CA185_1979
B1: the “selective binding over apo human TNFα (log)” value in assay [1] and in assay [2] was over 2 log in each case.
